We go through three substances from paper PMC7188906.

Experiment [1] has as its target T1, human ACKR4-EYFP (human) (UniProt Q9NPB9).
T1 sequence: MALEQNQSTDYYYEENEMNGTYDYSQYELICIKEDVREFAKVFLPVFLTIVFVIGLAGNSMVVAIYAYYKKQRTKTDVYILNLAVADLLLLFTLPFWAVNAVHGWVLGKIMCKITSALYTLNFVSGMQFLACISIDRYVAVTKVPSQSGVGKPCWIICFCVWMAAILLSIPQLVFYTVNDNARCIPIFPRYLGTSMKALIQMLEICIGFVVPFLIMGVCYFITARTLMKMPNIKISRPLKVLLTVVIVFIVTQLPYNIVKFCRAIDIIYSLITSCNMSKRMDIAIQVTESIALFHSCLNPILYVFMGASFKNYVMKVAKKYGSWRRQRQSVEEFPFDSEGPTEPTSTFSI

In experiment [2] the target is T1, human ACKR4-EYFP (human). The source holds these as a separate data set.

On to “recombinant human CCL25 (from UniProt O15444 24-150) (ligand)”, for which, in the experiment with human ACKR4-EYFP (human) [1], the EC50 of β-arrestin1-Nluc recruitment to ACKR4-EYFP (BRET, HeLa cells, graded chemokine) amounted to 115 nM and the EC50 of β-arrestin2-Nluc recruitment to ACKR4-EYFP (BRET, HeLa cells, graded chemokine) came to 130 nM. In the experiment with human ACKR4-EYFP (human) [2], the EC50 of GRK2-Nluc recruitment to ACKR4-EYFP (BRET, HeLa cells, dose-response) stood at 87 nM and the EC50 of GRK3-Nluc recruitment to ACKR4-EYFP (BRET, HeLa cells, dose-response) is 147 nM.
Taken in the same sequence, the figures for “recombinant human CCL21 (from UniProt O00585 24-134) (ligand)” were 240 nM, 133 nM, 129 nM and 142 nM.
Taken in the same sequence, the figures for “recombinant human CCL19 (from UniProt Q99731 22-98) (ligand)” were 76 nM, 32 nM, 35 nM and 42 nM.
